The record followed here is patent publication US6649168B2, “Pharmaceutical compositions comprising TGF-beta” (Novartis AG, priority 1999, dated 2003).

A short description of data set [1]: Fluorescence adsorption study (intrinsic tryptophan fluorescence) of binding to cuvette walls. It is filed as physicochemical. As to conditions: solution of TGF-β (1 μg/ml) in water, 25° C. The source says: We have also developed an analytical method suitable for determining suitable concentrations of TGF-β, especially TGF-β3. When adsorption of a fluorescent molecule (protein) occurs to the cuvette walls the concentration of the molecule in the solution decreases. This change in concentration is monitored by changes (reduction) in the fluorescence intensity. With optimized slits in the excitation and emission monochromators the excitation beam is focused in a small region in the middle of the cuvette and the emission is collected also preferentially from the same region. […] In these conditions the fluorescence intensity is proportional to the concentration of the molecules in the aqueous solution (monitored in the middle of the cuvette). If binding occurs a decrease in the fluorescence intensity is observed. For TGF-β the intrinsic tryptophan fluorescence is used in the adsorption studies. To characterize an adsorption process the percentage from the total TGF-β in the cuvette which bound to the walls in a given time interval, e.g. 25 minutes, is measured. Fluorescence measurements are performed with a Spex Fluorolog® or a Spex Fluoromax® spectrophotometers with a stirred attachment in the cell holder at 25° C. Tryptophan fluorescence is excited at 280 nm and emission monitored at 340 nm. […]

A further data set relates to vascularization. As to the kind of experiment: Mouse subcutaneous model (induction of angiogenesis). In kind it is in vivo. The source says: (§1) The in vivo performance of the pharmaceutical compositions of the present invention may be tested on horses (wound healing), pigs (oral mucositis inhibition), rabbits e.g. with the rabbit cranial defect model (induction of repairing of bone defects), and femal mice (induction of angiogenesis).

For a further data set, the system named is cranial bone defect. As to the kind of experiment: Rabbit cranial defect model, bony filling by quantitative radiography. It is filed as in vivo. The procedure:
as §1
Bone disks removed for creation of the defect served as controls for the extent of bone regeneration. After an eight week healing period the bony filling of the defects was determined by quantitative radiography. The total defect area corresponded to 113320.2 pixels and was taken as 100% for further calculations. Accordingly, complete regeneration corresponded to a value of 11.3×10^4 pixels.

Data set [2] is described as follows: Aggregation by 90°-light scattering. In kind it is physicochemical. Conditions: 10 mM calcium chloride or 10 mM calcium phosphate, and 20% isopropanol or ethanol; increasing TGF-β3 concentration up to 60 μg/ml. The procedure: Aggregation of TGF-β3 in different aqueous conditions is studied using 90°-lightscattering. Using the same wavelength for excitation and emission, e.g. excitation and emission wavelength is 560 nm, a Spectrofluorimeter is used to detect aggregation events by measuring the 90°-light scatter. In this method a small aliquot of TGF-β3 stock solution is added in the fluorescence cuvette. If aggregation takes place an increase in the 90°-light scatter intensity is observed.
A composition comprising 10 mM calcium chloride or 10 mM calcium phosphate, and 20% isopropanol or ethanol is prepared.

Data set [3] can be described thus: Chemical stability of lyophilized formulation, by-products by capillary zone electrophoresis. It is filed as physicochemical. As to conditions: in the absence of CaCl2. The procedure:
The chemical stability of lyophilized formulation in vials containing TGF-β3, 5.881 mg of CaCl2 and 25 mg of mannitol have been tested. The vials are solubilized to obtain TGF-β3 solutions of 0.1 mg/ml and 0.25 mg/ml. TGF-β3 by-products (related substances) are determined by capillary zone electrophoresis. […] There is no increase in the TGF-β3 by-products after 6 month incubation at 40° C. In comparison, in the absence of CaCl2 the chemical degradation is substantial.

TGF-β: in data set [1], the “binding to plastic, quartz and siliconised quartz cuvettes” value is “bind strongly”.

Take “TGF-β3: 25 kD homodimeric, disulfide-linked protein composed of two 112 amino acid polypeptides”: in the data set with vascularization, the “vascularization (in words)” value is “strong vascularization”. In addition, in the data set with cranial bone defect, the “bone formation (in words)” value is recorded as “strong bone formation”. Besides, the “aggregation (90°-light scatter intensity)” value in data set [2] is “No aggregation”. Besides, the chemical degradation result in data set [3] was “substantial”.
